Data set [1] deals with substrate designed for detection of Granzyme B (-VGPD′FGR- cleavage).
Data set [2] has as its system substrate designed for detection of Caspase 3 (-DEVD′GIN- cleavage).

Consider recombinant Granzyme B, for which the “Fluorogenic activity of indicated substrates measured in solution after addition of recombinant enzyme” value in data set [1] is “selective cleavage of substrates designed for detection of Granzyme B (-VGPD′FGR- cleavage)”. With recombinant Caspase 3, in data set [2], the “Fluorogenic activity of indicated substrates measured in solution after addition of recombinant enzyme” value is recorded as “selective cleavage of substrates designed for detection of ... Caspase 3 (-DEVD′GIN- cleavage) protease activities”.

The values are drawn from US20070184493.
